Assay results: publication PMC9675756

Key:
[1] = target: A3G-CTD2 (catalytically active), crystal and NMR construct (human) (UniProt Q9HC16); assay: competitive inhibition of deamination, real-time 1H NMR; details: N at position 6 = 2'-deoxy-zebularine (replaces target C); hydrated to 4-(R)-hydroxy-3,4-dihydro form in the active enzyme; DTT, 0.002% Tween 20, 50 nM protein, RED-tris-NTA dye, 23 C; NMR inhibition: 50 mM NaPO4 pH 6.5, 100 mM NaCl, 0.00
[2] = target: A3G-CTD2 (catalytically active soluble variant), MST construct (human) (UniProt Q9HC16); assay: MST; details: 23 C, apparent Kd, active enzyme hydrates dZ, N at position 6 = 2'-deoxy-zebularine (replaces target C), hydrated to 4-(R)-hydroxy-3,4-dihydro form in the active enzyme, MST: 20 mM Bis-Tris pH 6.5, 100 mM NaCl, 1 mM DTT, 0.002% Tween 20, 50 nM protein, RED-tris-NTA dye, NMR inhibition: 50 mM NaPO4 pH 6.5, 100 mM NaCl …
[3] = target: A3G-CTD2* (catalytically inactive), MST construct E259A (human) (UniProt Q9HC16); assay: MST; details: N at position 6 = 2'-deoxy-zebularine (replaces target C); hydrated to 4-(R)-hydroxy-3,4-dihydro form in the active enzyme; MST: 20 mM Bis-Tris pH 6.5, 100 mM NaCl, 1 mM DTT, 0.002% Tween 20, 50 nM protein, RED-tris-NTA dye, 23 C; NMR inhibition: 50 mM NaPO4 pH 6.5, 100 mM NaCl …
A3G-CTD2* (catalytically inactive), MST construct E259A (human), sequence (Q9HC16 191-384 E259A): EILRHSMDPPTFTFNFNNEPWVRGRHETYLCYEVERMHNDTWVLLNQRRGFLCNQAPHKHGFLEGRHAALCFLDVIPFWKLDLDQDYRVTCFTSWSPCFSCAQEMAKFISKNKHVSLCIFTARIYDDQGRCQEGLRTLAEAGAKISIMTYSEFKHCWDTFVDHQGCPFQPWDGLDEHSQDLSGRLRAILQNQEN

A3G-CTD2 (catalytically active), crystal and NMR construct (human), sequence (Q9HC16 191-384): as the sequence (Q9HC16 191-384 E259A) above, with A69E counted along it

With “AATCCNAAA [5'-AATCCdZAAA (dZ-ssDNA inhibitor)]” the Ki [1] was 3.07 µM, the Kd [2] was 0.27 µM and the Kd [3] was 14.3 µM.
